# Laboratory results published in paper PMC9287376 (Nature Communications, 2022).
# Changes are numbered by the printed parent chain.
# T1: refolding Vibrio harveyi luciferase (urea-denatured and diluted into refolding buffer) (Vibrio harveyi, UniProt P07740 1-355; P07739 1-324)
# T1 construct: alpha subunit of the heterodimeric flavin monooxygenase luciferase of Vibrio harveyi; beta subunit of the heterodimeric flavin monooxygenase luciferase of Vibrio harveyi; In the assays the heterodimer was urea-denatured; also called luciferase subunits; source: E. coli (pET21b), purified (Ni-His Trap, Superdex 75); denatured in 5 M urea and diluted into buffer A; not shown: His tag (on the …)
# T1 sequence (looked up) 1: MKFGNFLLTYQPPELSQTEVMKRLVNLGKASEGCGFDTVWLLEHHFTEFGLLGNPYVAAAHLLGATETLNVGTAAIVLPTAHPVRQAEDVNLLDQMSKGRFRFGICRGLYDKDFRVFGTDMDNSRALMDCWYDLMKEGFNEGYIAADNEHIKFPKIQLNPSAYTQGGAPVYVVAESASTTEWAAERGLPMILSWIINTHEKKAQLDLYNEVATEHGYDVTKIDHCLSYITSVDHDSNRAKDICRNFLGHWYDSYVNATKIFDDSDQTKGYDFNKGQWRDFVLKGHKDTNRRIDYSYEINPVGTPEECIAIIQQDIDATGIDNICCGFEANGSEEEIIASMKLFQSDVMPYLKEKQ
# T1 sequence (looked up) 2: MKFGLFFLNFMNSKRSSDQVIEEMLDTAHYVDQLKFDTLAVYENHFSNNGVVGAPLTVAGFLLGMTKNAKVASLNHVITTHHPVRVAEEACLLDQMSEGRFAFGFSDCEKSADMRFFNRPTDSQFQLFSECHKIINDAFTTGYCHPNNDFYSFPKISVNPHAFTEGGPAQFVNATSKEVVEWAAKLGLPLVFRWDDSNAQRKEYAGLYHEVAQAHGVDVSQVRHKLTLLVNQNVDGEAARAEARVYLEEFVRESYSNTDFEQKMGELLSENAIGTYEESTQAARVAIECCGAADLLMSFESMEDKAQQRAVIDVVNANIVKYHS
# B1: wild-type trigger factor (natural protein)
# chain: MQVSVETTQGLGRRVTITIAADSIETAVKSELVNVAKKVRIDGFRKGKVPMNIVAQRYGASVRQDVLGDLMSRNFIDAIIKEKINPAGAPTYVPGEYKLGEDFTYSVEFEVYPEVELQGLEAIEVEKPIVEVTDADVDGMLDTLRKQQATWKEKDGAVEAEDRVTIDFTGSVDGEEFEGGKASDFVLAMGQGRMIPGFEDGIKGHKAGEEFTIDVTFPEEYHAENLKGKAAKFAINLKKVEERELPELTAEFIKRFGVEDGSVEGLRAEVRKNMERELKSAIRNRVKSQAIEGLVKANDIDVPAALIDSEIDVLRRQAAQRFGGNEKQALELPRELFEEQAKRRVVVGLLLGEVIRTNELKADEERVKGLIEEMASAYEDPKEVIEFYSKNKELMDNMRNVALEEQAVEAVLAKAKVTEKETTFNELMNQQA
# notes: trigger factor, a bacterial ATP-independent chaperone; results are mapped onto the crystal structure pdb 1w26; Monomer-dimer equilibrium; predominantly monomeric under the conditions used (low uM, 0.26 M GdnHCl); also called TF; source: E. coli BL21 (DE3), purified (Ni-His Trap, ULP1 cleavage, HiTrap Q, Superdex 75); not shown: His-Sumo, N-terminal, cleaved
# B2: Fluorescein-5-maleimide-labelled trigger factor E326C (natural protein)
# chain: B1 chain with E326C
# modifications: fluorescein-5-maleimide on the cysteine of E326C
# notes: Labelling efficiency typically above 92%; also called fluorescently labelling trigger factor; source: E. coli BL21 (DE3), purified (Ni-His Trap, ULP1 cleavage, HiTrap Q, Superdex 75), labelled with fluorescein-5-maleimide; not shown: His-Sumo, N-terminal, cleaved
# B3: Alexa Fluor 488-labelled GAPDH (enzyme)
# chain: not shown
# modifications: CF Fluor 488 A maleimide (called Alexa Fluor 488) on cysteine; the paper says only Cys 149 is solvent-exposed in the native tetramer
# notes: glyceraldehyde 3-phosphate dehydrogenase, rabbit; Labelling efficiency typically above 98%; also called fluorophore labelled GAPDH; source: bought: Sigma-Aldrich (G2267), labelled with CF Fluor 488A maleimide, denatured in GdnHCl
# B4: refolding glyceraldehyde 3-phosphate dehydrogenase (rabbit GAPDH, GdnHCl-denatured and diluted into refolding buffer) (enzyme)
# chain: not shown
# notes: glyceraldehyde 3-phosphate dehydrogenase, rabbit (rabbit-muscle GAPDH, pdb 1J0X); Native GAPDH is a tetramer; The protein from tissue likely lacks the initiator methionine (surmise); also called rGAPDH; source: bought: Sigma-Aldrich (G2267), purified rabbit GAPDH; denatured in 3 M GdnHCl and diluted into buffer A
# What was measured:
# [1] = biological target: B4; test: AUC; sedimentation velocity; 5 μM refolding GAPDH alone or with 15 μM trigger factor; buffer A (0.1 M potassium phosphate pH 7.5, 0.1 M KCl, 1 mM TCEP) with 0.26 M GdnHCl, 4 °C, 40,000 r.p.m.; details: both partners purified
# [2] = biological target: T1, refolding Vibrio harveyi luciferase …; test: AUC; sedimentation velocity; 2 μM refolding luciferase alone or with 16 μM trigger factor; buffer A with 0.1 M urea, 4 °C, 35,000 r.p.m.; details: both partners purified
# [3] = biological target: T1, refolding Vibrio harveyi luciferase …; test: fluorescence polarisation; anisotropy titration; 0.5 μM fluorescein-labelled trigger factor E326C titrated with urea-denatured luciferase; buffer A, 25 °C; hyperbola fit; apparent; details: both partners purified
# wild-type trigger factor [4] = biological target: B1; test: fluorescence polarisation; stopped-flow anisotropy; 0.13 μM labelled denatured GAPDH mixed with 0.13–3.24 μM trigger factor; 0.1 M potassium phosphate pH 7.6, 0.1 M KCl, 1 mM TCEP, 0.26 M GdnHCl, 4 °C; linear fit of kobs against trigger factor concentration; details: both partners purified
# wild-type trigger factor [5] = biological target: B1; test: cross-linking; XL-MS; 6 μM denatured GAPDH diluted into buffer A with equimolar trigger factor (0.26 M GdnHCl), 2 h on ice, then 2 mM disuccinimidyl dibutyric urea 2 h on ice; SDS–PAGE and LC–MS; details: both partners purified
# [6] = biological target: the molecule itself; test: AUC; sedimentation velocity; 5 μM refolding GAPDH alone or with 15 μM trigger factor; buffer A (0.1 M potassium phosphate pH 7.5, 0.1 M KCl, 1 mM TCEP) with 0.26 M GdnHCl, 4 °C, 40,000 r.p.m.
# [7] = biological target: B2; test: fluorescence polarisation; anisotropy titration; 0.5 μM fluorescein-labelled trigger factor E326C titrated with GdnHCl-denatured GAPDH; buffer A, 4 °C; quadratic fit; apparent; details: both partners purified
binder,measurement,setting,value
B1,stoichiometry N,[1],1
same,stoichiometry N,[2],1
B2,Kd,[3],4500 nM
B3,koff,wild-type trigger factor [4],8.7 s⁻¹
same,kon,wild-type trigger factor [4],6.6e+06 M⁻¹ s⁻¹
B4,binding result,wild-type trigger factor [5],binds
same,binding result,[6],binds
same,Kd,[7],320 nM
